In the RNAGym collection of RNA variant scans (doi:10.1073/pnas.2313332121):

B1: TPR t1 (parent)
chain: GACCAAUCUGCCCUCAGAGCUCGAGAACAUCUUCGGAUGCAGAGGAGGCAGGCUUCGGUGGCGCGAUAGCGCCAACGUCCUCAACCUCCAAUGCAUCCCACCACAUGAUGAUGCCUGAAGAGCCUUGGUUUUUUG

Variants of: B1
Assay: polymerase ribozyme fitness, log enrichment relative to wild type (log ratio); higher = more active; in vitro selection for triplet polymerase activity
In short: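 Mutant libraries were PCR-built and transcribed for each subunit of a heterodimeric triplet polymerase ribozyme and selected for one round in triplicate at −7 °C, frozen, before gel excision of extended constructs and streptavidin-bead capture. Input and output libraries were Illumina-sequenced, keeping genotypes with ≥10 input reads and ≥1 read per output. Fitness is a logarithmic ratio of genotype to wild-type enrichment, in base 2, using inverse-variance-weighted replicate averages.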

Variant | polymerase ribozyme fitness (log ratio)
C8U C28G U109A | -4.64
C8U C12G U14G G60A U78G G113A | -3.01
U9A A24C U59C A91U A111C | -6.66
C8U C85U C124G | 2.05
C8U C97U U116C | -0.891
C8U G48A A50G | -1.52
U9A C13G U32A G39C A41U G60C C88U G117A | -7.75
C8U C28G | -1.19
C8G U14G C53U G71A | -0.0624
C8G U92A | -1.78
C8G U9G C12G C49G A91U | -2.4
U9A C89G A90U | -0.63
U9A G71A C85A G93A C102A | -3.84
U9A C56U | 0.248
U9A C56A | 0.00188
C8U A121U | 2.15
U9A G110C U130A | -4.06
C8U U9G A37G G117C | -0.0473
C8U G57U G110U | -1.01
C8U C72A C98U U116A G128C | -6.24
U9A A18G C82U C115U | -3.35
C8U U9C A119U | 0.976
U9G A46U G48U C76U C124U | -1.24
C8U U129G U133A | -1.94

Variant | polymerase ribozyme fitness (log ratio)
C8U C62A C98U | -1.15
U9C U14A U21C A43C G117A A119G | -1.44
U9G A105U G113A | -5.18
C8U G61A | 0.644
C8U A27G C82A | -1.59
U9A C64U G117A | 0.77
U9A A16U A24C U33G G36A C115U | -7.16
U9C G19A U96A A121G U132A | -1.11
C8G U32G C101U C124A | -4.92
C8U C73A C123A | 2.02
U9A C13G A26C G63C G110A | -5.86
C8G U9G C12A G69A C88G U132A | -4.01
C8U G19A U21C U55C | -2.54
C8U C12A A41U A46G G71A C89U | -2.07
U9G C53U A95C C115A | 0.969
U9G G19U G44A G58C C64U A74G | -4.3
C8U G60C G61C C72A C101U | -1.33
C8U C99U | -2.32
U9G C28U G61U C72G U87A G122A | -1.55
C8U G52A A74U U112C | 1.59
U9A U30C G44A G57U G60A U112G U125A | -5.02
U9A A24G G42A G52C C72G | -3.17
C8U C12U C70G C94A | -3.02
C8U C64A U78C | -6.51

Variant | polymerase ribozyme fitness (log ratio)
C8U C22G U96A | -2.59
C8U A26U U59G | -2.5
U9G C20G G44C C72U C114G | -6.99
C8U U9A A18U C76G | -1.89
C8G U30C | -2.51
U9C U81A U116A G122U C124U | -0.783
C8U C15U U32C G71U C99U | -4.38
U9A C20G U96G C124U | -3.29
C8U C22A A26G C28U C34A G63U C104A U112C G135A | -2.92
U9A G39C | -0.517
U9G G45A G93U C114A | -2.75
U9G A18U C49A G93A G110C | -5.65
U9C G17A A43U A50U A74C G120U | -4.05
C8U A24G U112G | -0.0167
U9A G51A U112A | -2.45
U9C G36U C104A C115A | -1.3
U9G C20A U131A | -1.99
U9C C15G U106A | -1.27
U9C G45A C124U U126A U133A | -0.505
C8G U14C G45A A84G | -0.446
U9C G39A A41U C73G G120U | -0.71
U9A G52A C104U G110C | -3.92
U9G C72G | -0.437
U9C U21A C49G C101A | -1.26

Variant | polymerase ribozyme fitness (log ratio)
U9A U78A | -0.206
U9A G10C C13U C40A C80A G122A | -3.43
U9G A95C U130A | -0.961
C8U C13A C85A U106C C123A | -0.442
U9C G52A C104U A121U | 2.1
C8U U21C G122A | -0.0897
U9G A18C G117A | 0.733
U9C C28U G36U A121G | 0.0298
U9C A83C | 0.121
C8G U78C C85U G113U U132A | -2.41
U9A G45U C73U C98U | -0.532
U9C A27G C56A U92A | -3.57
U9A C22U | -3.34
C8U U38G G51A | -3.4
U9G C72U C94A G110A G113U A121G | -6.14
U9G C72G U87G | -0.102
U9C A37C C94U G110A | -1.17
C8G U96C C104U | 0.578
U9G G36C C56U C76U C85U A118U | -2.3
C8U C82U U116G G117A | 0.198
U9G C11G G45C | -5.66
C8U A100C G117A | -1.87
U9A G44A G69A C72U U87C | -3.54
U9A A16U G63U U132A | -1

Variant | polymerase ribozyme fitness (log ratio)
U9G G10C C11A C15A A37G C49G C85U A95U C123U | -3.19
U9A G58A G61A C85A G113A | -0.721
U9A C73G G117A | 0.428
U9G A103U U126A G127C | -5.16
U9G C34U U59A A103U | -5.76
U9G A27C C98U | -4.04
C8U A16U A37U G52C C56G C79A G110U U126A | -4.2
C8U C13A A18C U54G C70U | -3.71
C8U U21C U87G G122A | -0.0757
U9A G120C | 1.21
U9G C15A C97U A108G G120A | -1.87
U9C C34U C56G G77A U106A G113A A121G | -3.53
U9G C97U A100C A108G | -2.87
U9C C12U C22G G45C C72G A100U | -4.47
C8G U38A A100U | -2.56
U9G A83G G93A C102A C123U | -2.93
U9A G51A G52A C70G C82U G120C | -5.71
C8U U30C C49U C124G U133G | -3.25
C8U C62U C79U C82U A91U A105G C123G U129G U131G | -5.84
U9G C40G C94U C123A U125A | -0.873
U9A C13G C20A A43G A95G | -4.1
C8U U21A U30C C56U | -3.2
U9C G19C C70U | -3.22
C8U G117A A119U C123U U133G | -1.22

Variant | polymerase ribozyme fitness (log ratio)
C8U U96G G110U | -2.02
U9C U32C U109G | -6.53
C8U G48C C56A | -0.762
U9C C49A C123U | 1.45
U9A A46G C85U U125A | -1.94
U9G C28G A111C G122A | -4.22
U9C C62U C102U | -1.87
U9A A50G C88G A108U | -4.75
C8G U33C C64A U106A G120C | -6.76
U9C C70U | -0.0921
U9A C62A C85G U131C | -1.16
U9G A37U G39A G45U A46U C94G | -5.9
U9C A37U A66C | -1.35
U9A G42A U87C C101A G120A | -1.63
U9G C72G G113A G120A | -1.17
U9A G71A C73A C85A U116A | -3.81
C8U C22U G39U G113A G120C C123A | -5.45
U9A A83U | 0.0435
U9G C20A C22U C86U | -4.49
U9C C53U G69C | -0.176
C8U G48C | 0.186
U9A C12G U87G C99U | -2.31
C8U U9A C11A C13A G44U C73A A100U C102U | -4.18
C8U G71A | -0.229

Variant | polymerase ribozyme fitness (log ratio)
U9G G48A U81A C89A G93U C115G C123G | -6.43
C8U G52U C86A | -1.28
U9C A41C G52A C98U U130G | -2.71
U9C C31U A37U | -5.02
C8U A46G | -0.00753
C8U A46U | -0.626
U9A G63U G120C | 0.699
U9G C82G | -0.102
U9C G52A C89A G117A | -1.63
C8U C104G U106A C124G | -3.63
C8U C82U G113U | -2.67
U9C A50U C94U | -2.36
C8U C94A | -0.617
U9C C15A G45C G57C U59A | 0.541
C8U G44U C88G | -1.96
C8U C40G G63U A100G | -5.92
U9A C11U A100U | -0.0164
U9A G39C C62A U78A U87G G110U | -5.8
U9G G10U C12G A111G | 0.61
C8U G58U A111G U126C | -1.57
U9A A29U A41U G60A U78C G93U A119G | -2.57
U9G C20A | -2.5
U9C G39A A41C C72G A84C C86A C99A A121U | -6.53
